# Results as given in patent publication US20250277199, “NOVEL CRISPR-CAS NUCLEASES FROM METAGENOMES” (Brain Biotech AG, published 2025).
# T1: BMC15 (uncultured bacterium (metagenome))
# T1 chain: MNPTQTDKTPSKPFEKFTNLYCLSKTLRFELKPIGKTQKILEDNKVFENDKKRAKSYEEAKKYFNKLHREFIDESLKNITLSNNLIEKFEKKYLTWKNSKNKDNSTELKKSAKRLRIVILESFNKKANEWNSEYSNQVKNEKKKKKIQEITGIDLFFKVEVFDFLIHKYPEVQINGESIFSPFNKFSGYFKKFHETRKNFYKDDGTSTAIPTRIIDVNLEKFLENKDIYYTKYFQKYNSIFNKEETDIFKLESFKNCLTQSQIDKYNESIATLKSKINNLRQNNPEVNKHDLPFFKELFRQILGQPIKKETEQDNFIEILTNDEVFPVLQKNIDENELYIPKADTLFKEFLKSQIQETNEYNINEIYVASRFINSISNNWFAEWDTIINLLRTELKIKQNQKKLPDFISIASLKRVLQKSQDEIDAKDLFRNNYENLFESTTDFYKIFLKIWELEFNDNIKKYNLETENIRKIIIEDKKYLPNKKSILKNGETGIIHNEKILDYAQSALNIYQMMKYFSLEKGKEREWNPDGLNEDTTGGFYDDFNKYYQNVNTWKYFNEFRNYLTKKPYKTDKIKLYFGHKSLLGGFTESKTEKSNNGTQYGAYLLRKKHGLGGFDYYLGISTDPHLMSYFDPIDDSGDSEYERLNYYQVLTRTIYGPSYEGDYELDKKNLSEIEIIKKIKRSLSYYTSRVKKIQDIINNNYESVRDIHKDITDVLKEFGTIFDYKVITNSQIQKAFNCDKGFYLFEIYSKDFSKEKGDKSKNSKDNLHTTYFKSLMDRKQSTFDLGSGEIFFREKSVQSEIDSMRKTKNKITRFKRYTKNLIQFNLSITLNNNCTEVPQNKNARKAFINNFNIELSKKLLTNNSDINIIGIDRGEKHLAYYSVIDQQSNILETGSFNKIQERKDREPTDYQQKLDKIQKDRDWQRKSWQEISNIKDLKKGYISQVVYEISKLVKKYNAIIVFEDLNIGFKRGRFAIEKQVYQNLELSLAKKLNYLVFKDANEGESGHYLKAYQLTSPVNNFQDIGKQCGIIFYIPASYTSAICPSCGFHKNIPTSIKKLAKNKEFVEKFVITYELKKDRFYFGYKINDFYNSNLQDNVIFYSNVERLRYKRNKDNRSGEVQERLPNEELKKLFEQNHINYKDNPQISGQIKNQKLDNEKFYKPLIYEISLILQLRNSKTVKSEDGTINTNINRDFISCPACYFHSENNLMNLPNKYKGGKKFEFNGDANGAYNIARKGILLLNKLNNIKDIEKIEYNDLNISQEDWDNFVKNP
# B1: malQ gRNA (BMC stem-loop + 24 nt spacer) ; malQ protospacer (ssRNA ; dsDNA)
# RNA: GAUUUCUACUAUUGUAGAUGUGGCGGUACGUUGAUGCAUCGCG
# DNA 1: GTGGCGGTACGTTGATGCATCGCG
# DNA 2: CGCGATGCATCAACGTACCGCCAC
# Target: T1, BMC15
# Experiment: cell_activity; PAM not stated; E. coli depletion, 30 C
# Method in brief: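 E. coli carrying arabinose-induced (0.2%) BMC nuclease, grown at 30° C., made electrocompetent and electroporated with 50-100 ng plasmid carrying gRNA against malQ. Transformants plated on selective M9-glucose agar with kanamycin/ampicillin (± nourseothricin), and growth scored after 48 h at 30° C.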
binder,measurement,value
B1,activity,> 99.9 % colony reduction
